Measured values: article PMC9175105

Assays:
[1] = biological target: shedded GPIbα or glycocalicin (UniProt P07359); test: biomembrane force probe (BFP), force-clamp assay; bead-bead mode; VWF-A1 on the probe bead, glycocalicin on the target bead; single bonds held at clamp forces of 10-70 pN; bond lifetime vs force; beads without treatment
[2] = biological target: shedded GPIbα or glycocalicin (UniProt P07359)
[3] = biological target: shedded GPIbα or glycocalicin (UniProt P07359); test: biomembrane force probe (BFP), adhesion frequency assay; bead-bead mode; VWF-A1 covalently linked to the probe bead, glycocalicin to the target bead; 20 pN impingement, 0.2 s contact; 200 approach-contact-retract cycles per probe-target pair, five pairs

How did the peak bond lifetime at 20-25 pN [1] turn out when “VWF-A1 with short N-AIM, high binder form, 1261^H-A1 (from UniProt P04275 1261-1472) (domain or fragment)” was run?
The peak bond lifetime at 20-25 pN was 2.26 s.

And the mean rolling velocity of washed human platelets (native GPIbα) on coated 1261^H-A1 at 800 s^-1 [2]?
Its mean rolling velocity of washed human platelets (native GPIbα) on coated 1261^H-A1 at 800 s^-1 is 3.15 μm s^−1.

What about the tethered platelet density; washed human platelets (native GPIbα) perfused at 800 s^-1 for 30 s over coated 1261^H-A1, no treatment [2] of the same substance?
The tethered platelet density; washed human platelets (native GPIbα) perfused at 800 s^-1 for 30 s over coated 1261^H-A1, no treatment was 0.0053 μm^−2.

What about the adhesion frequency (Pa) [3] of the same substance?
Its adhesion frequency (Pa) is 0.13.
